B1: Floral homeotic protein … (Arabidopsis thaliana (Mouse-ear cress)), P48007 (parent)
chain: MGRGKIEIKRIENANNRVVTFSKRRNGLVKKAKEITVLCDAKVALIIFASNGKMIDYCCPSMDLGAMLDQYQKLSGKKLWDAKHENLSNEIDRIKKENDSLQLELRHLKGEDIQSLNLKNLMAVEHAIEHGLDKVRDHQMEILISKRRNEKMMAEEQRQLTFQLQQQEMAIASNARGMMMRDHDGQFGYRVQPIQPNLQEKIMSLVID

Variants of: B1
Settings: with sep3_arath SEP3, O22456
Chain of sep3_arath SEP3, O22456 (O22456 whole entry): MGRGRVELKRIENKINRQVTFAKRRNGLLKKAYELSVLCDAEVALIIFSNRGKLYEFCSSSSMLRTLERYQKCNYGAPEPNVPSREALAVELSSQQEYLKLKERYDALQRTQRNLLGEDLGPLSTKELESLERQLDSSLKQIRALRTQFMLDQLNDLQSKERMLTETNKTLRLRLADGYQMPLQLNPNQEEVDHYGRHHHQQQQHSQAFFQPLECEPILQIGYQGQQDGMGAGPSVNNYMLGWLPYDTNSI

Row | Variant | effect of a mutation on the interaction
1 | MGRGKIEIKRIENANNRVVTFSKRRNGLVKKAKEITVLCDAKVALIIFASNGKMIDYCCPSMDLGAMLDQYQKLSGKKLWDAKHENLSNEIDRIKKENDSLQLELRHLKGEDIQSLNLKNLMAVEHAIEHGLDKVRDHQMEILISKRRPEKMMAEEQRQLTFQLQQQEMAIASNARGMMMRDHDGQFGYRVQPIQPNLQEKIMSLVID [N149P] | increasing interaction
2 | MGRGKIEIKRIENANNRVVTFSKRRNGLVKKAKEITVLCDAKVALIIFASNGKMIDYCCPSMDLGAMLDQYQKLSGKKLWDAKHENLSNEIDRIKKENDSLQLELRHLKGEDIQSLNLKNLMAVEHAIEHGLDKVRDHQMEPLISKRRNEKMMAEEQRQLTFQLQQQEMAIASNARGMMMRDHDGQFGYRVQPIQPNLQEKIMSLVID [I142P] | decreasing interaction
3 | MGRGKIEIKRIENANNRVVTFSKRRNGLVKKAKEITVLCDAKVALIIFASNGKMIDYCCPSMDLGAMLDQYQKLSGKKLWDAKHENLSNEIDRIKKENDSLQLELRHLKPEDIQSLNLKNLMAVEHAIEHGLDKVRDHQMEILISKRRNEKMMAEEQRQLTFQLQQQEMAIASNARGMMMRDHDGQFGYRVQPIQPNLQEKIMSLVID [G110P] | decreasing interaction
4 | MGRGKIEIKRIENANNRVVTFSKRRNGLVKKAKEITVLCDAKVALIIFASNGKMIDYCCPSMDLGAMLDQYQKLSGKKLWDAKHENLSNEIDRIKKENDSLQLELRHLKGEDIQSLNLKNLMAVEHAIEHGLDKVRDHQMEILIPKRRNEKMMAEEQRQLTFQLQQQEMAIASNARGMMMRDHDGQFGYRVQPIQPNLQEKIMSLVID [S145P] | decreasing interaction
5 | MGRGKIEIKRIENANNRVVTFSKRRNGLVKKAKEITVLCDAKVALIIFASNGKMIDYCCPSMDLGAMLDQYQKLSGKKLWDAKHENLSNEIDRIKKENDSLQLELRHLKGEDIQSLNLKNLMAVEHAIEHGLDKVRDHQMEILISKRRNEKMMAEEQRQPTFQLQQQEMAIASNARGMMMRDHDGQFGYRVQPIQPNLQEKIMSLVID [L160P] | increasing interaction
6 | MGRGKIEIKRIENANNRVVTFSKRRNGLVKKAKEITVLCDAKVALIIFASNGKMIDYCCPSMDLGAMLDQYQKLSGKKLWDAKHENLSNEIDRIKKENDSLPLELRHLKGEDIQSLNLKNLMAVEHAIEHGLDKVRDHQMEILISKRRNEKMMAEEQRQLTFQLQQQEMAIASNARGMMMRDHDGQFGYRVQPIQPNLQEKIMSLVID [Q102P] | decreasing interaction
7 | MGRGKIEIKRIENANNRVVTFSKRRNGLVKKAKEITVLCDAKVALIIFASNGKMIDYCCPSMDLGAMLDQYQKLSGKKLWDAKHENLSNEIDRIKKENDSLQLELRHLKGEDIQSLNLKNLMAVEHAIEHGLDKVRDHQMEILISKRRNEKMMAEEQRQLTFQLQQPEMAIASNARGMMMRDHDGQFGYRVQPIQPNLQEKIMSLVID [Q167P] | increasing interaction
8 | MGRGKIEIKRIENANNRVVTFSKRRNGLVKKAKEITVLCDAKVALIIFASNGKMIDYCCPSMDLGAMLDQYQKLSGKKLWDAKHENLSNEIDRIKKENDSLQPELRHLKGEDIQSLNLKNLMAVEHAIEHGLDKVRDHQMEILISKRRNEKMMAEEQRQLTFQLQQQEMAIASNARGMMMRDHDGQFGYRVQPIQPNLQEKIMSLVID [L103P] | decreasing interaction
9 | MGRGKIEIKRIENANNRVVTFSKRRNGLVKKAKEITVLCDAKVALIIFASNGKMIDYCCPSMDLGAMLDQYQKLSGKKLWDAKHENPSNEIDRIKKENDSLQLELRHLKGEDIQSLNLKNLMAVEHAIEHGLDKVRDHQMEILISKRRNEKMMAEEQRQLTFQLQQQEMAIASNARGMMMRDHDGQFGYRVQPIQPNLQEKIMSLVID [L87P] | decreasing interaction
10 | MGRGKIEIKRIENANNRVVTFSKRRNGLVKKAKEITVLCDAKVALIIFASNGKMIDYCCPSMDLGAMLDQYQKLSGKKLWDAKHENLSNEIDRIKKENDSLQLELRHLKGEDIQSLNLKNLMAVEHAIEHGLDKVRDHQMEILISKRRNEKMMPEEQRQLTFQLQQQEMAIASNARGMMMRDHDGQFGYRVQPIQPNLQEKIMSLVID [A154P] | decreasing interaction
11 | MGRGKIEIKRIENANNRVVTFSKRRNGLVKKAKEITVLCDAKVALIIFASNGKMIDYCCPSMDLGAMLDQYQKLSGKKLWDAKHENLSNEIDRIKKENDSLQLELRHLKGEDIQSLNLKNLMAVEHAIEHPLDKVRDHQMEILISKRRNEKMMAEEQRQLTFQLQQQEMAIASNARGMMMRDHDGQFGYRVQPIQPNLQEKIMSLVID [G131P] | decreasing interaction
12 | MGRGKIEIKRIENANNRVVTFSKRRNGLVKKAKEITVLCDAKVALIIFASNGKMIDYCCPSMDLGAMLDQYQKLSGKKLWDAKHENLSNEIDRIKKENDSLQLELRHLKGEDIQSLNLKNLMAVEHAIEHGLDKVRDHQMEILISKRRNEKMMAEEQRQLTFQLQQQEMAIASNARPMMMRDHDGQFGYRVQPIQPNLQEKIMSLVID [G177P] | increasing interaction
13 | MGRGKIEIKRIENANNRVVTFSKRRNGLVKKAKEITVLCDAKVALIIFASNGKMIDYCCPSMDLGAMLDQYQKLSGKKLWDAKHENLSNEIDRIKKENDSLQLELRHLKGEDIQSLNLKNLMAVEHAIEHGPDKVRDHQMEILISKRRNEKMMAEEQRQLTFQLQQQEMAIASNARGMMMRDHDGQFGYRVQPIQPNLQEKIMSLVID [L132P] | decreasing interaction
14 | MGRGKIEIKRIENANNRVVTFSKRRNGLVKKAKEITVLCDAKVALIIFASNGKMIDYCCPSMDLGAMLDQYQKLSGKKLWDAKHENLSNEIDRIKKENDSLQLELRHLKGEDIQSPNLKNLMAVEHAIEHGLDKVRDHQMEILISKRRNEKMMAEEQRQLTFQLQQQEMAIASNARGMMMRDHDGQFGYRVQPIQPNLQEKIMSLVID [L116P] | decreasing interaction
15 | MGRGKIEIKRIENANNRVVTFSKRRNGLVKKAKEITVLCDAKVALIIFASNGKMIDYCCPSMDLGAMLDQYQKLSGKKLWDAKHENLSNEIDRIKKENDSLQLELRHLKGEDIQSLNLKNLMAVEHAIEHGLDKVRDHQMEILISKRRNEKMPAEEQRQLTFQLQQQEMAIASNARGMMMRDHDGQFGYRVQPIQPNLQEKIMSLVID [M153P] | decreasing interaction

Variants of: B1
Settings: with sep3_arath SEP3, O22456
Remark: another data set of the same source

Row | Variant | effect of a mutation on the interaction
16 | MGRGKIEIKRIENANNRVVTFSKRRNGLVKKAKEITVLCDAKVALIIFASNGKMIDYCCPSMDLGAMLDQYQKLSGKKLWDAKHENLSNEIDRIKKENDSLQLELRHLKGEDIQFLNLIILMAVEHAIEHGLDKVRDHQMEILISKRRNEKMMAEEQRQLTFQLQQQEMAIASNARGMMMRDHDGQFGYRVQPIQPNLQEKIMSLVID [S115F;K119I;N120I] | decreasing interaction
17 | MGRGKIEIKRIENANNRVVTFSKRRNGLVKKAKEITVLCDAKVALIIFASNGKMIDYCCPSMDLGAMLDQYQKLSGKKLWDAKHENLSNEIDRIKKENDSLQLELRHLKGEDIQSLNLKNPMAVEHAIEHGLDKVRDHQMEILISKRRNEKMMAEEQRQLTFQLQQQEMAIASNARGMMMRDHDGQFGYRVQPIQPNLQEKIMSLVID [L121P] | decreasing interaction
18 | MGRGKIEIKRIENANNRVVTFSKRRNGLVKKAKEITVLCDAKVALIIFASNGKMIDYCCPSMDLGAMLDQYQKLSGKKLWDAKHENLSNEIDRIKKENDSLQLELRHLKGEDIQSLNLKNLKAVEHAIEHGLDKVRDHQMKILISKRRNEKMMAEEQRQLTFQLQQQEMAIASNARGVMMRDHDGQFGYRVQPIQPNLQEKIMSLVID [M122K;E141K;M178V] | decreasing interaction
19 | MGRGKIEIKRIENANNRVVTFSKRRNGLVKKAKEITVLCDAKVALIIFASNGKMIDYCCPSMDLGAMLDQYQKLSGKKLWDAKHENLSNEIDRIKKENDSLQLELRHLKGEDIQSLNLKNLMADEHAIEHGLDKVRDHQMEILISKRRNEKMMAEEQRQLTFQLQQQEMAIASNARGMMMRDHDGQFGYRVQPIQPNLQEKIMSLVID [V124D] | decreasing interaction
20 | MGRGKIEIKRIENANNRVVTFSKRRNGLVKKAKEITVLCDAKVALIIFASNGKMIDYCCPSMDLGAMLDQYQKLSGKKLWDAKHENLSNEIDRIKKENGSLQLELRHLKGEDIQSLNLKNLMAVEHAIEHGLDKVRDHQMEILISKRRNEKMMAEEQRQLTFQLQQQEMAIASNARGMMMRDHDGQFGYRVQPIQPNLGEKIMSLVID [D99G;Q199G] | decreasing interaction
21 | MGRGKIEIKRIENANNRVVTFSKRRNGLVKKAKEITVLCDAKVALIIFASNGKMIDYCCPSMDLGAMLDQYQKLSGKKLWDAKHENLSNEIDRIKKENDSLQLEPRHLKGEAIQSLNLKNLMAVGHAIEHGLDKVRDHQMEILISKRRNEKMMAEEQRQLTFQLQQQEMAIASNARGMMMRDHDGQFGYRVQPIQPNLQEKIMSLAID [L105P;D112A;E125G;V206A] | decreasing interaction
22 | MGRGKIEIKRIENANNRVVTFSKRRNGLVKKAKEITVLCDAKVALIIFASNGKMIDYCCPSMDLGAMLDQYQKLSGKKLWDAKHENLSNEIDRIKKENDSLQLELRHLKGEDIQSPNLKNLMAVEHAIEHGLDKVRDHQMEILISKRRNEKTMAEEQRQLTFQLQQQEMAIASNARGMMMRDHDGQFGYRVQPIQPNLQEKIMSLVID [L116P;M152T] | decreasing interaction
23 | MGRGKIEIKRIENANNRVVTFSKRRNGLVKKAKEITVLCDAKVALIIFASNGKMIDYCCPSMDLGAMLDQYQKLSGKKLWDAKHENLSNEIDRIKKENDSLQLELRHLKGEDIQSLNPKNLMAVEHAIEHGLDKVRDHQMEILISKRRDEKMMAEEQRQPTFQLQQQEMAIASNARGMMMRDHDGQFGYRVQPIQPNLQEKIMSLVID [L118P;N149D;L160P] | decreasing interaction
24 | MGRGKIEIKRIENANNRVVTFSKRRNGLVKKAKEITVLCDAKVALIIFASNGKMIDYCCPSMDLGAMLDQYQKLSGKKLWDAKHENLSNEIDRIKKENDSLQLELRHLKGEGIQSLNLKNLMAVEHAIEHGLDKVRDHQMEILISKRRNEKMMAEEQRQLTFQLQQQEMAIASNAGGMMMRDHDGQFGYRVQPIQPNLQEKIMSLVID [D112G;R176G] | decreasing interaction
25 | MGRGKIEIKRIENANNRVVTFSKRRNGLVKKAKEITVLCDAKVALIIFASNGKMIDYCCPSMDLGAMLDQYQKLSGKKLWDAKHENLSNEIDRIKKENDSLQLELRHLKGEDIQSLNLKNLMAVGHAIEHGLDKVRDHQMEILISKRRNEKMMAEEQRQLTFQLQQQEMAIASNARGMMMRDHDGQFGYRVQPIQPNLQEKIMSLVID [E125G] | decreasing interaction
26 | MGRGKIEIKRIENANNRVVTFSKRRNGLVKKAKEITVLCDAKVALIIFASNGKMIDYCCPSMDLGAMLDQYQKLSGKKLWDAKHENLSSEIDRIKKENDSLQLELRHLKGEDIQSLNLKNLMAVEHAIEHGLDKVRDHQMEILISKRRNEKVMAEEQRQLTFQLQQQEMAIASNARGMMMRDHDGQFGYRVQPIQPNLQEKIMSLVID [N89S;M152V] | decreasing interaction

Reference: IntAct's records for PubMed 15604664
